Test results published in PMC6683012.

B1: QSK1-nYFP [Arabidopsis] / SIRK1-cYFP [Arabidopsis] (parent)
chain 1: SDLESDRRALLAVRNSVRGRPLLWNMSASSPCNWHGVHCDAGRVTALRLPGSGLFGSLPIGGIGNLTQLKTLSLRFNSLSGPIPSDFSNLVLLRYLYLQGNAFSGEIPSLLFTLPSIIRINLGENKFSGRIPDNVNSATRLVTLYLERNQLSGPIPEITLPLQQFNVSSNQLNGSIPSSLSSWPRTAFEGNTLCGKPLDTCEAESPNGGDAGGPNTPPEKKDSDKLSAGAIVGIVIGCVVGLLLLLLILFCLCRKRKKEENVPSRNVEAPVAAATSSAAIPKETVVVVPPAKATGSESGAVNKDLTFFVKSFGEFDLDGLLKASAEVLGKGTVGSSYKASFEHGLVVAVKRLRDVVVPEKEFRERLHVLGSMSHANLVTLIAYYFSRDEKLLVFEYMSKGSLSAILHGNKGNGRTPLNWETRAGIALGAARAISYLHSRDGTTSHGNIKSSNILLSDSYEAKVSDYGLAPIISSTSAPNRIDGYRAPEITDARKISQKADVYSFGVLILELLTGKSPTHQQLNEEGVDLPRWVQSVTEQQTPSDVLDPELTRYQPEGNENIIRLLKIGMSCTAQFPDSRPSMAEVTRLIEEVSHSSGSPNPVSD
chain 2: VTETELRSLLEFRKGIRDETSHQRISWSDTSSLTDPSTCPNDWPGISCDPETGSIIAINLDRRGLSGELKFSTLSGLTRLRNLSLSGNSFSGRVVPSLGGISSLQHLDLSDNGFYGPIPGRISELWSLNHLNLSSNKFEGGFPSGFRNLQQLRSLDLHKNEIWGDVGEIFTELKNVEFVDLSCNRFNGGLSLPMENISSISNTLRHLNLSHNALNGKFFSEESIGSFKNLEIVDLENNQINGELPHFGSQPSLRILKLARNELFGLVPQELLQSSIPLLELDLSRNGFTGSISEINSSTLTMLNLSSNGLSGDLPSSFKSCSVIDLSGNTFSGDVSVVQKWEATPDVLDLSSNNLSGSLPNFTSAFSRLSVLSIRNNSVSGSLPSLWGDSQFSVIDLSSNKFSGFIPVSFFTFASLRSLNLSRNNLEGPIPFRGSRASELLVLNSYPQMELLDLSTNSLTGMLPGDIGTMEKIKVLNLANNKLSGELPSDLNKLSGLLFLDLSNNTFKGQIPNKLPSQMVGFNVSYNDLSGIIPEDLRSYPPSSFYPGNSKLSLPGRIPADSSGDLSLPGKKHHSKLSIRIAIIVASVGAAIMILFVLFAYHRTQLKDFHGRNRFTDQATTRDTKFGRSSRPSLFNFSSNVEQQSSSLSFSNDHLLTANSRSLSGIPGCEAEISEQGAPATSAPTNLLDDYPAASGRKSSSGGSPLSSSPRFSDQPVMLDVYSPDRLAGELFFLDVSLKLTAEELSRAPAEVLGRSSHGTLYKATLDNGHMLTVKWLRVGLVRHKKDFAREAKKIGSLKHPNIVPLRAYYWGPREQERLLLSDYLRGESLAMHLYETTPRRYSPMSFSQRLKVAVEVAQCLLYLHDRAMPHGNLKPTNIILSSPDNTVRITDYCVHRLMTPSGVAEQILNMSALGYSAPELSSASKPIPTLKSDVYAFGVILMELLTRRSAGDIISGQTGAVDLTDWVRLCDQEGRRMDCIDRDIAGGEEFSKGMEDALAVAIRCILSVNERPNIRQVLDHLTSISA
B2: SIRK1-cYFP [Arabidopsis] / QSK1-nYFP [Arabidopsis] (parent)
chain 1: B1 chain 2
chain 2: B1 chain 1
B3: SIRK1-cYFP [Arabidopsis] / QSK2-nYFP [Arabidopsis] (parent)
chain 1: B1 chain 2
chain 2: DLEADRRALIALRDGVHGRPLLWNLTAPPCTWGGVQCESGRVTALRLPGVGLSGPLPIAIGNLTKLETLSFRFNALNGPLPPDFANLTLLRYLYLQGNAFSGEIPSFLFTLPNIIRINLAQNNFLGRIPDNVNSATRLATLYLQDNQLTGPIPEIKIKLQQFNVSSNQLNGSIPDPLSGMPKTAFLGNLLCGKPLDACPVNGTGNGTVTPGGKGKSDKLSAGAIVGIVIGCFVLLLVLFLIVFCLCRKKKKEQVVQSRSIEAAPVPTSSAAVAKESNGPPAVVANGASENGVSKNPAAVSKDLTFFVKSFGEFDLDGLLKASAEVLGKGTFGSSYKASFDHGLVVAVKRLRDVVVPEKEFREKLQVLGSISHANLVTLIAYYFSRDEKLVVFEYMSRGSLSALLHGNKGSGRSPLNWETRANIALGAARAISYLHSRDATTSHGNIKSSNILLSESFEAKVSDYCLAPMISPTSTPNRIDGYRAPEVTDARKISQKADVYSFGVLILELLTGKSPTHQQLHEEGVDLPRWVSSITEQQSPSDVFDPELTRYQSDSNENMIRLLNIGISCTTQYPDSRPTMPEVTRLIEEVSRSPASPGPLSD

Variants of: B1
Test: ratiometric bimolecular fluorescence complementation (rBiFC)
Settings: with SIRK1-cYFP [Arabidopsis]; n=12 cells (parent n=10); value is box-plot median; parent: 0.9; read off a plot

| Variant | response |
| --- | --- |
| chain 1 S598D S603D | 1.8 |

Same assay, conditions: with SIRK1-cYFP [Arabidopsis]; n=14 cells (parent n=10); value is box-plot median; parent: 0.9; read off a plot

| Variant | response |
| --- | --- |
| chain 1 S598A S603A | 1 |

Variants of: B2
Test: as above
Settings: with QSK1-nYFP [Arabidopsis]; n=10 cells (parent n=10); value is box-plot median; parent: 0.9; read off a plot

| Variant | response |
| --- | --- |
| chain 1 S723A | 0.18 |
| chain 1 S723D | 1.3 |

Variants of: B3
Test: as above
Settings: with QSK2-nYFP [Arabidopsis]; n=34 cells (parent n=32); value is box-plot median; parent: 1.6; read off a plot

| Variant | response |
| --- | --- |
| chain 1 S723A | 0.15 |

Same assay, conditions: with QSK2-nYFP [Arabidopsis]; n=35 cells (parent n=32); value is box-plot median; parent: 1.6; read off a plot

| Variant | response |
| --- | --- |
| chain 1 S723D | 1.7 |
